One block for each substance: values may come before it.
How the values were obtained:
Assay in all cases: co-IP
[1] = target: endogenous dynein intermediate chain (DIC) of COS7 cells (African green monkey (endogenous in COS7))
[2] = target: Flag-CRMP4 (UniProt Q14195)
[3] = target: endogenous mouse dynein intermediate chain (DIC) (mouse (endogenous in sciatic nerve and primary motor neurons)) (UniProt O88485)
UniProt O88485, sequence (O88485 whole entry): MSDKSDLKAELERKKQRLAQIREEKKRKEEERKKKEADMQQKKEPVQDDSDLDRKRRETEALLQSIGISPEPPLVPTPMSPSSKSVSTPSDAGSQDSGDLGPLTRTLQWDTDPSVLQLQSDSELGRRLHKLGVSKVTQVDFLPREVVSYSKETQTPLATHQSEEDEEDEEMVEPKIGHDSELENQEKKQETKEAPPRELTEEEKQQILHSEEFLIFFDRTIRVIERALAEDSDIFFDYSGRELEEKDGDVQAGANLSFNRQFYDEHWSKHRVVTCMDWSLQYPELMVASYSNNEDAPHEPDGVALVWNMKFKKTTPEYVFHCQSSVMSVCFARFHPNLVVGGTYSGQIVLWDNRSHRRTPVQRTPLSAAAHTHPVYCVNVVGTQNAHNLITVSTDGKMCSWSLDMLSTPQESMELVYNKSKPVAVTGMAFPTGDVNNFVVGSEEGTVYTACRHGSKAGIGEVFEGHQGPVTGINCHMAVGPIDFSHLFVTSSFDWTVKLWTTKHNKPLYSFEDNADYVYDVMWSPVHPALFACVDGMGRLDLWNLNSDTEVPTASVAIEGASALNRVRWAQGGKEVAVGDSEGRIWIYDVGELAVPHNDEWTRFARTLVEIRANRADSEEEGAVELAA

Flag-CRMP4, sequence (Q14195 whole entry): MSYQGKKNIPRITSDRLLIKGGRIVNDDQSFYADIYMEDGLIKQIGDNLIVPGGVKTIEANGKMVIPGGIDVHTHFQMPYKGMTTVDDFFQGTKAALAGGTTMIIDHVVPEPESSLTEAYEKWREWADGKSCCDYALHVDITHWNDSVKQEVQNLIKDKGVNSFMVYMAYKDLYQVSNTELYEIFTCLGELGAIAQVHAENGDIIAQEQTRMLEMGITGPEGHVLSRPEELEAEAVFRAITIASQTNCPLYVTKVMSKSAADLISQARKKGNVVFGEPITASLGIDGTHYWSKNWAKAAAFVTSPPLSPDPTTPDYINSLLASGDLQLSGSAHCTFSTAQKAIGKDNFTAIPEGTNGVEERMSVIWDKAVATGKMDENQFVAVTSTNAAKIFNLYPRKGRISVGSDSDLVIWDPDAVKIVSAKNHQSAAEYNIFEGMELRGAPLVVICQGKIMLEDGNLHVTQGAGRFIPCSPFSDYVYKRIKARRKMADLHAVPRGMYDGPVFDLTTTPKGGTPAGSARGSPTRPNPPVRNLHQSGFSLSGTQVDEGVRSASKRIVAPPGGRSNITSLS

CRMP4 band normalised to DIC band (mean), SOD1G93A sciatic nerve [3]: 1.48
CRMP4 band normalised to DIC band (mean), WT sciatic nerve [3]: 0.28
Substance: endogenous mouse CRMP4 (from UniProt Q62188 1-570) (natural protein)

CRMP4 band normalised to DIC band (mean) [1]: 1.62
Substance: mutated Flag-CRMP4-I141V (from UniProt Q14195 1-570) (natural protein)

More lines, now with the values behind:

Substance: CRMP4 (transfected together with AAV9-GFP or AAV9-GFP-50aa, Figure 4H) (from UniProt Q14195 1-570) (natural protein)
CRMP4 band normalised to DIC band (mean), cells with GFP-50aa [1]: 0.54
CRMP4 band normalised to DIC band (mean), control cells with GFP [1]: 1

Substance: Flag-CRMP4 (from UniProt Q14195 1-570) (natural protein)
CRMP4 band normalised to DIC band (mean) [1]: 1

Substance: dynactin (p150), endogenous in COS7 cells (natural protein)
dynactin band normalised to Flag-CRMP4 band (mean), no peptide (Fig 4E) [2]: 0.77
dynactin band normalised to Flag-CRMP4 band (mean), no peptide (Fig 4G) [2]: 1.92
dynactin band normalised to Flag-CRMP4 band (mean), with peptide-1 [2]: 1.44
dynactin band normalised to Flag-CRMP4 band (mean), with peptide-2 [2]: 1.34
dynactin band normalised to Flag-CRMP4 band (mean), with peptide-3 [2]: 1.8
dynactin band normalised to Flag-CRMP4 band (mean), with peptide-4 [2]: 1.13
dynactin band normalised to Flag-CRMP4 band (mean), with peptides 1-4 (Fig 4E) [2]: 0.17

Substance: full-length GFP-CRMP4 (from UniProt Q14195 1-570) (natural protein)
CRMP4 band co-precipitated with DIC (densitometry, mean) [1]: 1.47

— publication PMC8408612
